Laboratory results as given in patent US20230364254A1, “METHODS FOR TREATING CANCERS WITH ANTIBODY DRUG CONJUGATES (ADC) THAT BIND TO 191P4D12 PROTEINS” (priority 2020, published 2023).

Tested on: patients with locally advanced or metastatic urothelial cancer
Test: Same phase 2 study: safety (adverse events, NCI CTCAE v4.03)
Type: in vivo, human
Excerpt: Safety assessments will be based on the information collected through the safety surveillance process and will include the data from recorded adverse events (AEs) including SAEs, recording of concomitant medication, physical examination findings, cardiac monitoring, and laboratory tests.
The assessment of safety during the course of this study will consist of the surveillance and recording of AEs including SAEs, recording of concomitant medication, and measurements of protocol-specified physical examination findings, cardiac monitoring, and laboratory tests.
AE severity should be graded using the National Cancer Institute's Common Terminology Criteria for Adverse Events (NCI CTCAE), Version 4.03. These criteria are provided in the study manual.
An overview of AEs will provide a tabulation of the incidence of all AEs, treatment-emergent AEs, treatment-related AEs, Grade 3 and higher AEs. SAEs, treatment-related SAEs, deaths, and AEs leading to study treatment discontinuation. Adverse events will be defined as treatment emergent if they are newly occurring or worsened following study treatment.
AEs will be classified by system organ class and preferred tem using the Medical Dictionary for Regulatory Activities (MedDRA) and graded using NCI CTCAE, Version 4.03.
The incidence of AEs will be summarized by system organ class, preferred term, severity and relationship to study drug. In the event of multiple occurrences of the same AE in one patient, the AE will be counted once as the occurrence for the maximum grade. AEs leading to premature discontinuation of study drug will be summarized and listed in the same manner.

[1] = Total (N = 214), count (percent)
[2] = treatment-related TEAEs of interest
[3] = treatment-related TEAEs of interest, as of last follow-up
[4] = treatment-related TEAEs of interest, enfortumab vedotin 1.25 mg/kg, patients with locally advanced or metastatic urothelial cancer
[5] = treatment-related TEAEs of interest, most occurred in Cycle 1

## enfortumab vedotin: Nectin-4 directed ADC: fully human anti-nectin-4 IgG1 kappa antibody (AGS-22C3) conjugated to MMAE via protease-cleavable maleimidocaproyl valine-citrulline linker
Total (N = 214)
  Treatment-related AE leading to discontinuation: Multiple organ dysfunction syndrome: 1 (0.5) n (%)
  Treatment-related AE leading to discontinuation: Muscular weakness: 1 (0.5) n (%)
  Treatment-related AE leading to discontinuation: Overall: 29 (13.6) n (%)
  Treatment-related AE leading to discontinuation: Peripheral motor neuropathy: 1 (0.5) n (%)
  Treatment-related AE leading to discontinuation: Peripheral sensory neuropathy: 12 (5.6) n (%)
  Treatment-related AE leading to discontinuation: Pneumonitis: 1 (0.5) n (%)
  Treatment-related AE leading to discontinuation: Stevens-Johnson syndrome: 1 (0.5) n (%)
  Treatment-related TEAEs: 203 (94.9) n (%)
  Treatment-related TEAEs (all grades): Alopecia: 107 (50.0) n (%)
  Treatment-related TEAEs (all grades): Anaemia: 49 (22.9) n (%)
  Treatment-related TEAEs (all grades): Aspartate aminotransferase increased: 24 (11.2) n (%)
  Treatment-related TEAEs (all grades): Decreased appetite: 84 (39.3) n (%)
  Treatment-related TEAEs (all grades): Diarrhoea: 61 (28.5) n (%)
  Treatment-related TEAEs (all grades): Dry eye: 36 (16.8) n (%)
  Treatment-related TEAEs (all grades): Dry skin: 46 (21.5) n (%)
  Treatment-related TEAEs (all grades): Dysgeusia: 71 (33.2) n (%)
  Treatment-related TEAEs (all grades): Fatigue: 92 (43.0) n (%)
  Treatment-related TEAEs (all grades): Lacrimation increased: 30 (14.0) n (%)
  Treatment-related TEAEs (all grades): Nausea: 70 (32.7) n (%)
  Treatment-related TEAEs (all grades): Neutropenia: 24 (11.2) n (%)
  Treatment-related TEAEs (all grades): Oedema peripheral: 25 (11.7) n (%)
  Treatment-related TEAEs (all grades): Overall: 203 (94.9) n (%)
  Treatment-related TEAEs (all grades): Peripheral sensory neuropathy: 92 (43.0) n (%)
  Treatment-related TEAEs (all grades): Pruritus: 59 (27.6) n (%)
  Treatment-related TEAEs (all grades): Rash maculo-papular: 55 (25.7) n (%)
  Treatment-related TEAEs (all grades): Vomiting: 26 (12.1) n (%)
  Treatment-related TEAEs (all grades): Weight decreased: 52 (24.3) n (%)
  Treatment-related TEAEs leading to death: 3 (1.4) n (%)
  Treatment-related TEAEs leading to treatment discontinuation: 29 (13.6) n (%)
  Treatment-related TEAEs ≥Grade 3: Acute kidney injury: 5 (2.3) n (%)
  Treatment-related TEAEs ≥Grade 3: Amylase increased: 6 (2.8) n (%)
  Treatment-related TEAEs ≥Grade 3: Anaemia: 14 (6.5) n (%)
  Treatment-related TEAEs ≥Grade 3: Aspartate aminotransferase increased: 6 (2.8) n (%)
  Treatment-related TEAEs ≥Grade 3: Decreased appetite: 6 (2.8) n (%)
  Treatment-related TEAEs ≥Grade 3: Diarrhoea: 8 (3.7) n (%)
  Treatment-related TEAEs ≥Grade 3: Fatigue: 14 (6.5) n (%)
  Treatment-related TEAEs ≥Grade 3: Febrile neutropenia: 6 (2.8) n (%)
  Treatment-related TEAEs ≥Grade 3: Hyperglycaemia: 10 (4.7) n (%)
  Treatment-related TEAEs ≥Grade 3: Hyponatraemia: 6 (2.8) n (%)
  Treatment-related TEAEs ≥Grade 3: Lipase increased: 10 (4.7) n (%)
  Treatment-related TEAEs ≥Grade 3: Neutropenia: 18 (8.4) n (%)
  Treatment-related TEAEs ≥Grade 3: Neutrophil count decreased: 16 (2.8) n (%)
  Treatment-related TEAEs ≥Grade 3: Overall: 119 (55.6) n (%)
  Treatment-related TEAEs ≥Grade 3: Peripheral sensory neuropathy: 5 (2.3) n (%)
  Treatment-related TEAEs ≥Grade 3: Pruritus: 5 (2.3) n (%)
  Treatment-related TEAEs ≥Grade 3: Rash erythematous: 6 (2.8) n (%)
  Treatment-related TEAEs ≥Grade 3: Rash maculo-papular: 12 (5.6) n (%)
  Treatment-related grade 3-5 TEAEs: 119 (55.6) n (%)
  Treatment-related serious TEAEs: 39 (18.2) n (%)
[1]
  TEAEs leading to death (excluding disease progression): Acute kidney injury: 2 (0.9)
  TEAEs leading to death (excluding disease progression): Acute respiratory failure: 1 (0.5)
  TEAEs leading to death (excluding disease progression): Cardiac disorder: 1 (0.5)
  TEAEs leading to death (excluding disease progression): Metabolic acidosis: 1 (0.5)
  TEAEs leading to death (excluding disease progression): Multiple organ dysfunction syndrome: 1 (0.5)
  TEAEs leading to death (excluding disease progression): Overall: 9 (4.2)
  TEAEs leading to death (excluding disease progression): Pneumonia aspiration: 1 (0.5)
  TEAEs leading to death (excluding disease progression): Sepsis: 2 (0.9)
Cohort 1
  Discontinuation due to treatment-related peripheral neuropathy: 6%
  Discontinuation rate due to treatment-related AEs: 12%
  Grade 3 or Grade 4 treatment-related TEAE: anemia: 7%
  Grade 3 or Grade 4 treatment-related TEAE: fatigue: 6%
  Grade 3 or Grade 4 treatment-related TEAE: neutropenia: 8%
  SAE (unrelated and related): cellulitis: 4.8%
  SAE (unrelated and related): urinary tract infection: 4.8%
  cases of Stevens-Johnson Syndrome reported: One
  related SAE: febrile neutropenia: 4%
  subjects with a Grade 3 or Grade 4 treatment-related TEAE: 54%
Cohort 1, interstitial lung disease
  deaths assessed as treatment-related: one and One
Cohort 2
  Discontinuation due to treatment-related peripheral neuropathy: 4.5%
  Discontinuation rate due to treatment-related AEs: 15.7%
  SAE (unrelated and related): acute kidney injury: 10.1%
  deaths assessed as treatment-related by investigators: Four
  related SAE: acute kidney injury: 3.4%
  subjects with a treatment-related TEAE greater than or equal to Grade 3: 55.1%
  treatment-related TEAE ≥Grade 3: fatigue: 6.7%
  treatment-related TEAE ≥Grade 3: neutropenia: 9%
  treatment-related TEAE ≥Grade 3: rash maculo-popular: 7.9%
[2]
  Hyperglycemia, >Grade 3: 6%
  Peripheral Neuropathy, >Grade 3: 8%
  Peripheral Neuropathy, Median Onset: 2.6 months
  Skin Reactions, >Grade 3: 17%
[3]
  Hyperglycemia, Resolution/improvement: 89%
  Peripheral Neuropathy, Resolution/improvement: 54%
  Skin Reactions, Resolution/improvement: 80%
[4]
  Hyperglycemia, Any grade: 10%
  Peripheral Neuropathy, Any grade: 56%
  Skin Reactions, Any grade: 61%
[5]
  Hyperglycemia, Median Onset: 0.5ª months
  Skin Reactions, Median Onset: 0.5ª months
